For assay [1], the target named is T1, human macrophage mannose receptor (human, UniProt P22897 19-1456).
T1 construct: whole, on cells; also called MR; MMR
T1 sequence (looked up): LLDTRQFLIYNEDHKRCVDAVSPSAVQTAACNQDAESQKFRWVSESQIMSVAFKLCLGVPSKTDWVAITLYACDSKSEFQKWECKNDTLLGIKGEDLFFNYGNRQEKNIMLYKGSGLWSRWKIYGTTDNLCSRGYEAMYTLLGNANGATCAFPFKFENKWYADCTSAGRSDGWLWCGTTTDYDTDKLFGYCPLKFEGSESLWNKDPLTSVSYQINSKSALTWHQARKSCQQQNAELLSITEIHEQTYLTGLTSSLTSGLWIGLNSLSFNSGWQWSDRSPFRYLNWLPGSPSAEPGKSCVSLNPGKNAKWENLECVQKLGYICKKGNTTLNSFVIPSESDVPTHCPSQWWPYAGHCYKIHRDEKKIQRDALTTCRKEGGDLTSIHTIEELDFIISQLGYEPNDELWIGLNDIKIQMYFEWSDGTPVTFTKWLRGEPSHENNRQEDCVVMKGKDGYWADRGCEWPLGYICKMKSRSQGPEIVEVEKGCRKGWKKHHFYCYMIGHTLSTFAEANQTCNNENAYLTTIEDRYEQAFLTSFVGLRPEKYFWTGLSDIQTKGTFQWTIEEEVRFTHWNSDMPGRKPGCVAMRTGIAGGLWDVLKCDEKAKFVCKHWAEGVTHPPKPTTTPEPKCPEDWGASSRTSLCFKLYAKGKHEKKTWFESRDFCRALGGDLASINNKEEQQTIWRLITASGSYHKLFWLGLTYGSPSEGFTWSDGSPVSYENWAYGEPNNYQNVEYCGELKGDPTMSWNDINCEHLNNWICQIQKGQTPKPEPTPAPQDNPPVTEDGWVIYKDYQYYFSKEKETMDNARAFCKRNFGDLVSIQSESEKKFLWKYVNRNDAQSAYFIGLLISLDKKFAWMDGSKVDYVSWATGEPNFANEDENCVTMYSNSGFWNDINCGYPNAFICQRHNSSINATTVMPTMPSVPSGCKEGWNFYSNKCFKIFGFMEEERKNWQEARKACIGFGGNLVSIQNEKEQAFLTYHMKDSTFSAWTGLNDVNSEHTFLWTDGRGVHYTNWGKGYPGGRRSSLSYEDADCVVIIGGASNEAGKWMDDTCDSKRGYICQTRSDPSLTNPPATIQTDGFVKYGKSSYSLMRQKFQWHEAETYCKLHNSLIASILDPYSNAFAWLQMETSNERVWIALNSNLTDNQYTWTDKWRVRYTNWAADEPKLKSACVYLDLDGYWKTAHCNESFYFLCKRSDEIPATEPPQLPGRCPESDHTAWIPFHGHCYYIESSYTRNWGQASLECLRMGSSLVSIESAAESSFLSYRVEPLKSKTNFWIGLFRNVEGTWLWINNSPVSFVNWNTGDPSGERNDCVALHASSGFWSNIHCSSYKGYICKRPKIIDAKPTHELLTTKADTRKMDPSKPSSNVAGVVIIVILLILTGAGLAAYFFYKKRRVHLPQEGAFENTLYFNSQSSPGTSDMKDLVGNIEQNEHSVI
Put plainly: flow cytometry on cultured human DCs. As for the experimental part:
Monocyte-derived DCs were exposed either to B11 sfv-βhCG or βhCG-B11 in PBS-BSA buffer for 45 minutes at 37° C. and allowed to mature overnight in the presence of CD40L. Harvested DCs were then washed and stained with mouse anti-βhCG followed by goat anti-hu IgG (Fc)-PE conjugate. Stained cells were analyzed on a flow cytometer (BD-LSR). Approximately, 10,000 events were collected for each sample. Background autofluorescence and isotype matched antibody staining served as controls. Based on the mean fluorescence intensity (MFI) (data not shown), B11 sfv-βhCG binding to MR expressed on DC is similar to that of βhCG-B11.
On the technique in general: Flow cytometry measures light scatter and fluorescence of single cells or particles in a stream.

The target of assay [2] is T1, human macrophage mannose receptor. Put plainly: in situ staining of MR on human tissue cryosections (immunohistochemistry). The source says: Using the anti-MR antibody as a probe, in situ staining of MR on human dermal DCs and macrophages in section of various human tissues was examined. Human tissue cryosections were stained with anti-MR human antibody B11. DCs present in the dermal layer of the skin were clearly labeled (data not shown) with the B11 antibody. It is noted that there was binding to DCs in the dermal layer of skin. […] These studies have been repeated with the βhCG-B11 with identical results.

B1: B11sfv-βhCG construct (single chain B11 antibody, VL and VH, with βhCG fused to the carboxy terminus) (scFv)
scFv: DIQMTQSPSSLSASVGDRVTITCRASQGISRWLAWYQQKPEKAPKSLIYAASSLQSGVPSRFSGSGSGTDFTLTISGLQPEDFATYYCQQYNSYPRTFGQGTKVEIKGGGGSGGGGSGGGGSEVQLVQSGAEVKKPGESLRISCKGSGDSFTTYWIGWVRQMPGKGLEWMGIIYPGDSDTIYSPSFQGQVTISADKSISTAYLQWSSLKASDTAMYYCTRGDRGVDYWGQGTLVTVSSGSTGGGGSSSKEPLRPRCRPINATLAVEKEGCPVCITVNTTICAGYCPTMTRVLQGVLPALPQVVCNYRDVRFESIRLPGCPRGVNPVVSYAVALSCQCALCRRSTTDCGGPKDHPLTCDDPRFQDSSSSKAPPPSLPSPSRLPGPSDTPILPQ
notes: also called B11 scfv-βhCG; pB11sfv-βhCG
In the case of B1, the binding result in assay [1] is recorded as “binds”.

B2: βhCG-B11 construct (whole human anti-mannose receptor antibody B11 with βhCG fused to the CH3 end of the heavy chain) (antibody)
heavy: not shown
light: DIQMTQSPSSLSASVGDRVTITCRASQGISRWLAWYQQKPEKAPKSLIYAASSLQSGVPSRFSGSGSGTDFTLTISGLQPEDFATYYCQQYNSYPRTFGQGTKVEIK
notes: Antibody-antigen fusion expressed in CHO cells; also called B11-βhCG vaccine conjugate; B11-βhCG conjugate
With B2, the binding result in assay [1] is recorded as “binds”.

B3: human monoclonal antibody B11 (anti-mannose receptor) (antibody, V domains shown)
VH: EVQLVQSGAEVKKPGESLRISCKGSGDSFTTYWIGWVRQMPGKGLEWMGIIYPGDSDTIYSPSFQGQVTISADKSISTAYLQWSSLKASDTAMYYCTRGDRGVDYWGQGTLVTVSS
VL: B2 light
notes: Fully human whole antibody with a kappa light chain; also called B11 mAb; anti-MR B11 HuMAb
On to B3, for which the binding result in assay [2] is on record as “binds”.
